Test results from patent US20130323786A1.
Numbering of substitutions follows the chain as printed.

B1: Li62 variant F01 Fab (VH CDR3 SEQ ID NO:23) (Fab, V domains shown)
VH: EVQLLESGGGLVQPGGSLRLSCAASGFTFSIYPMFWVRQAPGKGLEWVSWIGPSGGITKYADSVKGRFTISRDNSKNTLYLQMNSLRAEDTATYYCAREGRYDWYFDPWGRGTLVTVSS
VL: DIQMTQSPSFLSASVGDSVAITCRASQDISRYLAWYQQRPGKAPKLLIYDASNLQTGVPSRFSGSGSGTDFTFTITSLQPEDFGTYYCQQYDTLHPSFGPGTTVDIK
B2: Li62 variant B06 Fab (VH CDR3 SEQ ID NO:17) (Fab, V domains shown)
VH: B1 VH with R101Y, P108Q
VL: B1 VL
B3: Li62 variant B12 Fab (VH CDR3 SEQ ID NO:18) (Fab, V domains shown)
VH: B1 VH with R101Q, P108V
VL: B1 VL
B4: Li62 variant D12 Fab (VH CDR3 SEQ ID NO:22) (Fab, V domains shown)
VH: B1 VH with R101H, P108L
VL: B1 VL
B5: Li62 variant H08 Fab (VH CDR3 SEQ ID NO:28) (Fab, V domains shown)
VH: B1 VH with R101H, D103N, W104G, P108L
VL: B1 VL
B6: Li62 variant G08 Fab (VH CDR3 SEQ ID NO:27) (Fab, V domains shown)
VH: B1 VH with R101Q, P108V
VL: B1 VL
B7: Li62 variant F02 Fab (VH CDR3 SEQ ID NO:24) (Fab, V domains shown)
VH: B1 VH with R101D, D107G, P108L
VL: B1 VL
B8: Li62 variant D05 Fab (VH CDR3 SEQ ID NO:31) (Fab, V domains shown)
VH: B1 VH with R101Y, D107E, P108L
VL: B1 VL
B9: Li62 variant F10 Fab (VH CDR3 SEQ ID NO:26) (Fab, V domains shown)
VH: B1 VH with G100S, R101H, Y102I, W104R, P108L
VL: B1 VL
B10: Li62 variant B01 Fab (VH CDR3 SEQ ID NO:20) (Fab, V domains shown)
VH: B1 VH with R101Q, D107E, P108L
VL: B1 VL
B11: Li62 variant D09 Fab (VH CDR3 SEQ ID NO:21) (Fab, V domains shown)
VH: B1 VH with G100A, R101D, Y102I, Y105F, P108L
VL: B1 VL
B12: Li62 variant F02 Fab (VH CDR3 SEQ ID NO:32) (Fab, V domains shown)
VH: B1 VH with R101L, Y102I, Y105F, P108Q
VL: B1 VL
B13: Li62 variant F06 Fab (VH CDR3 SEQ ID NO:19) (Fab, V domains shown)
VH: B1 VH with R101D, P108L
VL: B1 VL
B14: Li62 variant F06 Fab (VH CDR3 SEQ ID NO:25) (Fab, V domains shown)
VH: B1 VH with P108L
VL: B1 VL
B15: Li62 variant C10 Fab (VH CDR3 SEQ ID NO:29) (Fab, V domains shown)
VH: B1 VH with R101Y, P108L
VL: B1 VL
B16: Li62 variant C10 Fab (VH CDR3 SEQ ID NO:33) (Fab, V domains shown)
VH: B1 VH with R101Q, Y102F, P108L
VL: B1 VL
B17: Li113 Fab (Li62 variant C02, VH CDR3 SEQ ID NO:30) (Fab, V domains shown)
VH: B1 VH with R101T, F106L, P108L
VL: B1 VL
B18: Li62 variant H08 Fab (VH CDR3 SEQ ID NO:34) (Fab, V domains shown)
VH: B1 VH with R101T, P108L
VL: B1 VL
B19: N-terminally PEGylated Li113 (Fab, V domains shown)
VH: B1 VH with R101T, F106L, P108L
VL: B1 VL
modifications: N-terminal 20 kDa methoxy-polyethyleneglycol propionaldehyde; chain carrying it not stated
B20: Li62 Fab (Fab, V domains shown)
VH: B1 VH with R101H, Y102N, P108L
VL: B1 VL

target: LINGO-1 (human) (UniProt Q96FE5); assay: ELISA

B1 and B2 are the same in ELISA Signal: 3 for the first, 3 for the second.

B3 and B4 are the same in ELISA Signal: 3 for the first, 3 for the second.

Compared with B5, B6 is higher in ELISA Signal: 0.5 for the first, 3 for the second.

B7 and B8 are the same in ELISA Signal: 3 for the first, 3 for the second.

B9 and B10 are the same in ELISA Signal: 3 for the first, 3 for the second.

B11 and B12 are the same in ELISA Signal: 3 for the first, 3 for the second.

B13 and B14 are the same in ELISA Signal: 3 for the first, 3 for the second.

B15 and B16 are the same in ELISA Signal: 3 for the first, 3 for the second.

B17 and B18 are the same in ELISA Signal: 3 for the first, 3 for the second.

target: LINGO-1 (human) (UniProt Q96FE5); assay: FACS binding to LINGO-1; the value is listed under the plot without a name and agrees with the half-maximal point of the curve (x axis: Ab (ng/ml) log)

In the case of B19, the EC50 is reported as 0.182 µg/mL.

target: LINGO-1 (human) (UniProt Q96FE5); assay: LINGO-1 ELISA

First: B20
Second: B17
The EC50 of the first is 2.9-fold higher: 0.26 nM for the first, 0.09 nM for the second.

target: LINGO-1 (human) (UniProt Q96FE5); assay: affinity vs parent Li62 Fab; method not stated

Going from B1 to B2, the Fold-Improvement falls from 9 fold to 8 fold.

B3 and B4 are the same in Fold-Improvement: 8 fold for the first, 8 fold for the second.

Compared with B5, B6 is higher in Fold-Improvement: 6 fold for the first, 10 fold for the second.

Going from B7 to B8, the Fold-Improvement rises from 8 fold to 10 fold.

Going from B9 to B10, the Fold-Improvement rises from 5 fold to 8 fold.

Compared with B11, B12 is higher in Fold-Improvement: 15 fold for the first, 16 fold for the second.

Going from B13 to B14, the Fold-Improvement falls from 12 fold to 8 fold.

Compared with B15, B16 is lower in Fold-Improvement: 11 fold for the first, 9 fold for the second.

Compared with B17, B18 is higher in Fold-Improvement: 8 fold for the first, 9 fold for the second.
